For 1 substance, percent reduction of binding against AdGFPhWt results are on record in paper PMC4332860.

The experiment concerns the target Human coagulation factor X (human). Put plainly: SPR; human FX amine-coupled to a CMD500m chip; vector particles 1.25x10^8 to 1x10^9 physical particles per millilitre passed for 3 min at 25 μl/min; 10 mM HEPES pH 7.4, 150 mM NaCl, 5 mM CaCl2, 0.005% Tween 20; reference flow cell subtracted. On the technique in general: SPR reads the build-up and loss of mass on a sensor chip optically.

“AdGFPhCKS17, ΔE1/E3 Ad5 vector particles with CKS17 peptide in place of hexon HVR5 (from UniProt P04133 1-952; P11818 1-581) (complex)”: the percent reduction of binding against AdGFPhWt is 30%.
